# Measured values published in PMC2770954.
# Where “and” joins values, the source holds several entries; their conditions need not be identical. Equal entries are not always repeated.
# Assays:
# [1] = target: HIV-1 reverse transcriptase p66 subunit (wild type) (HIV-1) (UniProt P03366); test: intrinsic tryptophan fluorescence kinetics
# [2] = target: HIV-1 reverse transcriptase p66 subunit (wild type) (HIV-1) (UniProt P03366); test: pre-steady-state activity assay
# [3] = target: HIV-1 reverse transcriptase p51 p51 (Human immunodeficiency virus 1) (UniProt O93215); conditions: cited from earlier work
# [4] = target: HIV-1 reverse transcriptase p66 p66 (Human immunodeficiency virus 1) (UniProt O93215); conditions: cited from earlier work
# [5] = target: p66^S3C/C38V/C280S labeled with QSY9 (HIV-1); test: FRET or BRET
# [6] = target: p66^S3C/C38V/C280S labeled with A488 (HIV-1); test: FRET or BRET
substance,measurement,setting,value
HIV-1 reverse transcriptase p51 subunit (wild type) (from UniProt P03366 600-1039) (natural protein),"kdiss(1), slower major component of the two-exponential fit",[1],3.6e-06 s⁻¹
same,"kdiss(2), faster minor component of the two-exponential fit",[1],7.6e-05 s⁻¹
same,"kobs (0.5 µM p66, 0.5 µM p51)",[1],5.4e-06 s⁻¹
same,"kobs (0.5 µM p66, 0.5 µM p51)",[2],5.8e-06 s⁻¹
same,"kobs (0.5 µM p66, 2.5 µM p51)",[2],7.8e-06 s⁻¹
HIV-1 reverse transcriptase p66 p66 (from UniProt O93215),Kd,[3],310 nM
same,Kd,[4],4200 nM
p51^S3C/C38V/C280S labeled with A488 (natural protein),"kobs (0.5 µM p66-QSY9, 0.5 µM p51-A488)",[5],3.4e-06 s⁻¹
same,koff,[5],1.9e-06 s⁻¹
p51^S3C/C38V/C280S labeled with QSY9 (natural protein),"kobs (0.5 µM p66-A488, 0.5 µM p51-QSY9)",[6],4.1e-06 s⁻¹
same,"kobs (0.5 µM p66-A488, 1.5 µM p51-QSY9)",[6],4.8e-06 s⁻¹
same,"kobs (0.5 µM p66-A488, 2.0 µM p51-QSY9)",[6],5.7e-06 s⁻¹
same,"kobs (0.5 µM p66-A488, 2.5 µM p51-QSY9)",[6],7.1e-06 s⁻¹
same,koff,[6],2.5e-06 s⁻¹
same,kon,[6],1.6 M⁻¹ s⁻¹ and 1.8 M⁻¹ s⁻¹
